{"source": "paper PMC11960969", "about": "“Mdga2 deficiency leads to an aberrant activation of BDNF/TrkB signaling that underlies autism-relevant synaptic and behavioral changes in mice” (PLOS Biology, 2025)", "molecules": {"B1": {"name": "MDGA2-ΔMAM: truncated form of MDGA2 lacking its MAM domain (protein)", "chain": "PPTVRIVHSGLACNIEEERYSERVYTIREGETLELTCLVTGHPRPQIRWTKTAGSASDRFQDSSVFNETLRITNIQRHQGGRYYCKAENGLGSPAIKSIRVDVYYLDDPVVTVHQSIGEAKEQFYYERTVFLRCVANSNPPVRYSWRRGQEVLLQGSDKGVEIYEPFFTQGETKILKLKNLRPQDYANYSCIASVRNVCNIPDKMVSFRLSNKTASPSIKLLVDDPIVVNPGEAITLVCVTTGGEPAPSLTWVRSFGTLPEKTVLNGGTLTIPAITSDDAGTYSCIANNNVGNPAKKSTNIIVRALKKGRFWITPDPYHKDDNIQIGREVKISCQVEAVPSEELTFSWFKNGRPLRSSERMVITQTDPDVSPGTTNLDIIDLKFTDFGTYTCVASLKGGGISDISIDVNISSSTVPPNLTVPQEKSPLVTREGDTIELQCQVTGKPKPIILWSRADKEVAMPDGSMQMESYDGTLRIVNVSREMSGMYRCQTSQYNGFNVKPREALVQLIVQYPPAVEPAFLEIRQGQDRSVTMSCRVLRAYPIRVLTYEWRLGNKLLRTGQFDSQEYTEYAVKSLSNENYGVYNCSIINEAGAGRCSFLVTGKAYAPEFYYDTYNPVWQNRHRVYSYSLQWTQMNPDAVDRIVAYRLGIRQAGQQRWWEQEIKINGNIQKGELITYNLTELIKPEAYEVRLTPLTKFGEGDSTIRVIKYSAPVNPHLREQDLATKNSVD", "modifications": "left off: GFP, end not stated, kept", "notes": "truncated form of MDGA2 lacking its MAM domain"}}, "key": {"BDNF-TrkB interaction": {"system": "BDNF-TrkB interaction", "experiment": "BDNF-TrkB Co-IP (anti-BDNF or anti-TrkB) in primary neurons / brain of Het, KO, WT and in WT neurons transfected with MDGA2 or ΔMAM", "type": "cell-based, mouse", "conditions": "IP anti-BDNF, Fig 3I", "description": "(§1) Fig 3 MDGA2 interacts with TrkB and suppresses TrkB activity. (A) Primary hippocampal neurons derived from Mdga2^ +/− (Het) mice and their wild-type (WT) littermates at DIV 7 were treated with different doses of BDNF for 30 min. Equal amounts of protein lysates were subjected to immunoprecipitation (IP) with an anti-TrkB antibody, followed by immunoblotting with an anti-phosphotyrosine (pTyr) antibody or the anti-TrkB antibody. The pTyr levels were quantified by densitometry, normalized to total TrkB levels, and then compared to those of WT controls. n = 3 per group. (B) WT mouse brain lysates were subjected to IP with an anti-MDGA2 antibody and a control IgG, and immunoblotted (IB) for the components indicated. mBDNF, mature BDNF; ImBDNF, immature BDNF. […] Immunoprecipitated TrkB levels were quantified by densitometry, normalized to input levels, and compared to respective controls (set to one arbitrary units). n = 3 per group. […] Levels of phosphorylated proteins were quantified by densitometry, normalized to respective total protein levels and compared to controls (set to one arbitrary units). n = 6 per group. […] P-values were determined by two-tailed unpaired Student t-test in (A) and one-way ANOVA with Tukey’s multiple comparisons test in (H, I, J). *p < 0.05, **p < 0.01, ***p < 0.001, ns: not significant. […]"}, "TrkB (TrkB-Flag)": {"system": "TrkB (TrkB-Flag)", "experiment": "Co-IP of MDGA2 and its truncations with TrkB-Flag in HEK293T cells", "type": "binding, human", "conditions": "HEK293T cells co-transfected with TrkB-Flag and GFP-tagged MDGA2 constructs", "description": "as §1, with “BDNF. (C) Hippocampal neurons from WT mice at DIV 7 were immunostained with antibodies against MDGA2 (red) and TrkB (green), and then counter-stained with DAPI (blue). Images were acquired by a confocal microscope. Scale bar: 10 μm. (D) Surface plasmon resonance (SPR) analysis of the binding between recombinant MDGA2 protein and recombinant TrkB protein. TrkB was immobilized on a Biacore CM5 chip and tested for its binding with MDGA2 at the concentrations indicated. (E) Computer simulation of the binding mode of TrkB and MDGA2. The predicted binding domain of TrkB (the d5 domain) is highlighted by a red square and labeled in brown. The predicted binding domain of MDGA2 (the MAM domain) is highlighted by a red square and labeled in yellow.” for “BDNF.”"}, "TrkB (TrkB-VN)": {"system": "TrkB (TrkB-VN)", "experiment": "BiFC assay in HeLa cells (TrkB-VN with MDGA2-VC or ΔMAM-VC)", "type": "cell-based, human", "conditions": "24 h, Venus fluorescence", "description": "as §1"}}, "data": [{"molecule": "B1", "values": [{"measurement": "interaction between BDNF and TrkB upon overexpression", "setting": "BDNF-TrkB interaction", "value": "not MDGA2-ΔMAM"}, {"measurement": "interaction with TrkB (Co-IP)", "setting": "TrkB (TrkB-Flag)", "value": "abolished the MDGA2-TrkB interaction"}, {"measurement": "interaction with TrkB (BiFC)", "setting": "TrkB (TrkB-VN)", "value": "not MDGA2-ΔMAM"}]}]}
